Patent publication US20200115430A1 (I2O THERAPEUTICS, published 2020)
Starred links: 1 amine or outer side, 2 acyl side, 3 side chain; linkers in the order of their positions; H or OH if unused. Positions of bridges follow the written chain, without caps; N, C: chain ends. Groups on a side chain read outwards from the residue. No end group written: not given here. *: point of attachment. C20 diacid = O=C(O)CCCCCCCCCCCCCCCCCCC(=O)*; C18 diacid = O=C(O)CCCCCCCCCCCCCCCCC(=O)*; γGlu = O=C(O)[C@H](CCC(=O)[*:2])N[*:1]; Palmitoyl = CCCCCCCCCCCCCCCC(=O)*

T1: human calcitonin receptor (human, UniProt P30988 25-474)
T1 sequence (looked up): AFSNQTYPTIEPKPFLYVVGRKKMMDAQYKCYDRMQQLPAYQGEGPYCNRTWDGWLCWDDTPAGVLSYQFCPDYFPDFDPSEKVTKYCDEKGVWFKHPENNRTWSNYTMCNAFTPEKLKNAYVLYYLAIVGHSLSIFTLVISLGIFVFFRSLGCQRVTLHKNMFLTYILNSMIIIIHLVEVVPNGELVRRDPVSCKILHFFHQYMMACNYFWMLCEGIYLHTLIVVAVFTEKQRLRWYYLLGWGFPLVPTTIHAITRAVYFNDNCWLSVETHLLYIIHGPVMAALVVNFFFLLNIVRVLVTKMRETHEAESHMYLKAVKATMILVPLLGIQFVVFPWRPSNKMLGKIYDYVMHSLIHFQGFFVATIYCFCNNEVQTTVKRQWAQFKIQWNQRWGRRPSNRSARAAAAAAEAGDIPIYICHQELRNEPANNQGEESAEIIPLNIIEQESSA

T2: human amylin 3 receptor (human, UniProt P30988 25-474; O60896 24-148)
T2 sequence (looked up) 1: T1 sequence (looked up)
T2 sequence (looked up) 2: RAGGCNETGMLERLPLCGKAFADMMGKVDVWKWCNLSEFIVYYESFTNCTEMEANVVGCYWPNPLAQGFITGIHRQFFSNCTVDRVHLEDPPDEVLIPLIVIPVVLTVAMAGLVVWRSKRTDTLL

B1: Compound A114 (peptide)
peptide: K([γGlu-γGlu-C20 diacid])CNTSTCATSRLANFLQKSSNNFGPILPPTKVGSETY-NH2
modifications: disulfide 2-7; N-terminus assumed
SMILES: CC[C@H](C)[C@H](NC(=O)[C@@H]1CCCN1C(=O)CNC(=O)[C@H](Cc1ccccc1)NC(=O)[C@H](CC(N)=O)NC(=O)[C@H](CC(N)=O)NC(=O)[C@H](CO)NC(=O)[C@H](CO)NC(=O)[C@H](CCCCN)NC(=O)[C@H](CCC(N)=O)NC(=O)[C@H](CC(C)C)NC(=O)[C@H](Cc1ccccc1)NC(=O)[C@H](CC(N)=O)NC(=O)[C@H](C)NC(=O)[C@H](CC(C)C)NC(=O)[C@H](CCCNC(=N)N)NC(=O)[C@H](CO)NC(=O)[C@@H](NC(=O)[C@H](C)NC(=O)[C@@H]1CSSC[C@H](NC(=O)[C@@H](N)CCCCNC(=O)CC[C@H](NC(=O)CC[C@H](NC(=O)CCCCCCCCCCCCCCCCCCC(=O)O)C(=O)O)C(=O)O)C(=O)N[C@@H](CC(N)=O)C(=O)N[C@@H]([C@@H](C)O)C(=O)N[C@@H](CO)C(=O)N[C@@H]([C@@H](C)O)C(=O)N1)[C@@H](C)O)C(=O)N[C@@H](CC(C)C)C(=O)N1CCC[C@H]1C(=O)N1CCC[C@H]1C(=O)N[C@H](C(=O)N[C@@H](CCCCN)C(=O)N[C@H](C(=O)NCC(=O)N[C@@H](CO)C(=O)N[C@@H](CCC(=O)O)C(=O)N[C@H](C(=O)N[C@@H](Cc1ccc(O)cc1)C(N)=O)[C@@H](C)O)C(C)C)[C@@H](C)O
B2: Compound A107 (peptide)
peptide: SCNTSTCATQRLK([γGlu-Palmitoyl])NELHKSSNNFGPILPPTKVGSETY-NH2
modifications: disulfide 2-7; N-terminus assumed
SMILES: CCCCCCCCCCCCCCCC(=O)N[C@@H](CCC(=O)NCCCC[C@H](NC(=O)[C@H](CC(C)C)NC(=O)[C@H](CCCNC(=N)N)NC(=O)[C@H](CCC(N)=O)NC(=O)[C@@H](NC(=O)[C@H](C)NC(=O)[C@@H]1CSSC[C@H](NC(=O)[C@@H](N)CO)C(=O)N[C@@H](CC(N)=O)C(=O)N[C@@H]([C@@H](C)O)C(=O)N[C@@H](CO)C(=O)N[C@@H]([C@@H](C)O)C(=O)N1)[C@@H](C)O)C(=O)N[C@@H](CC(N)=O)C(=O)N[C@@H](CCC(=O)O)C(=O)N[C@@H](CC(C)C)C(=O)N[C@@H](Cc1c[nH]cn1)C(=O)N[C@@H](CCCCN)C(=O)N[C@@H](CO)C(=O)N[C@@H](CO)C(=O)N[C@@H](CC(N)=O)C(=O)N[C@@H](CC(N)=O)C(=O)N[C@@H](Cc1ccccc1)C(=O)NCC(=O)N1CCC[C@H]1C(=O)N[C@H](C(=O)N[C@@H](CC(C)C)C(=O)N1CCC[C@H]1C(=O)N1CCC[C@H]1C(=O)N[C@H](C(=O)N[C@@H](CCCCN)C(=O)N[C@H](C(=O)NCC(=O)N[C@@H](CO)C(=O)N[C@@H](CCC(=O)O)C(=O)N[C@H](C(=O)N[C@@H](Cc1ccc(O)cc1)C(N)=O)[C@@H](C)O)C(C)C)[C@@H](C)O)[C@@H](C)CC)C(=O)O
B3: Compound A109 (peptide)
peptide: K([γGlu-C18 diacid])CNTSTCATSRLANFLQKSSNNFGPILPPTKVGSETY-NH2
modifications: disulfide 2-7; N-terminus assumed
SMILES: CC[C@H](C)[C@H](NC(=O)[C@@H]1CCCN1C(=O)CNC(=O)[C@H](Cc1ccccc1)NC(=O)[C@H](CC(N)=O)NC(=O)[C@H](CC(N)=O)NC(=O)[C@H](CO)NC(=O)[C@H](CO)NC(=O)[C@H](CCCCN)NC(=O)[C@H](CCC(N)=O)NC(=O)[C@H](CC(C)C)NC(=O)[C@H](Cc1ccccc1)NC(=O)[C@H](CC(N)=O)NC(=O)[C@H](C)NC(=O)[C@H](CC(C)C)NC(=O)[C@H](CCCNC(=N)N)NC(=O)[C@H](CO)NC(=O)[C@@H](NC(=O)[C@H](C)NC(=O)[C@@H]1CSSC[C@H](NC(=O)[C@@H](N)CCCCNC(=O)CC[C@H](NC(=O)CCCCCCCCCCCCCCCCC(=O)O)C(=O)O)C(=O)N[C@@H](CC(N)=O)C(=O)N[C@@H]([C@@H](C)O)C(=O)N[C@@H](CO)C(=O)N[C@@H]([C@@H](C)O)C(=O)N1)[C@@H](C)O)C(=O)N[C@@H](CC(C)C)C(=O)N1CCC[C@H]1C(=O)N1CCC[C@H]1C(=O)N[C@H](C(=O)N[C@@H](CCCCN)C(=O)N[C@H](C(=O)NCC(=O)N[C@@H](CO)C(=O)N[C@@H](CCC(=O)O)C(=O)N[C@H](C(=O)N[C@@H](Cc1ccc(O)cc1)C(N)=O)[C@@H](C)O)C(C)C)[C@@H](C)O
B4: Compound A116 (peptide)
peptide: K([γGlu-C20 diacid])CNTSTCATSRLANFLQKSSNNFGPILPPTKVGSETY-NH2
modifications: disulfide 2-7; N-terminus assumed
SMILES: CC[C@H](C)[C@H](NC(=O)[C@@H]1CCCN1C(=O)CNC(=O)[C@H](Cc1ccccc1)NC(=O)[C@H](CC(N)=O)NC(=O)[C@H](CC(N)=O)NC(=O)[C@H](CO)NC(=O)[C@H](CO)NC(=O)[C@H](CCCCN)NC(=O)[C@H](CCC(N)=O)NC(=O)[C@H](CC(C)C)NC(=O)[C@H](Cc1ccccc1)NC(=O)[C@H](CC(N)=O)NC(=O)[C@H](C)NC(=O)[C@H](CC(C)C)NC(=O)[C@H](CCCNC(=N)N)NC(=O)[C@H](CO)NC(=O)[C@@H](NC(=O)[C@H](C)NC(=O)[C@@H]1CSSC[C@H](NC(=O)[C@@H](N)CCCCNC(=O)CC[C@H](NC(=O)CCCCCCCCCCCCCCCCCCC(=O)O)C(=O)O)C(=O)N[C@@H](CC(N)=O)C(=O)N[C@@H]([C@@H](C)O)C(=O)N[C@@H](CO)C(=O)N[C@@H]([C@@H](C)O)C(=O)N1)[C@@H](C)O)C(=O)N[C@@H](CC(C)C)C(=O)N1CCC[C@H]1C(=O)N1CCC[C@H]1C(=O)N[C@H](C(=O)N[C@@H](CCCCN)C(=O)N[C@H](C(=O)NCC(=O)N[C@@H](CO)C(=O)N[C@@H](CCC(=O)O)C(=O)N[C@H](C(=O)N[C@@H](Cc1ccc(O)cc1)C(N)=O)[C@@H](C)O)C(C)C)[C@@H](C)O
B5: Compound A55 (peptide)
peptide: K(C18 diacid)CNTSTCATSRLANFLQKSSNNFGPILPPTKVGSETY-NH2
modifications: disulfide 2-7; N-terminus assumed
SMILES: CC[C@H](C)[C@H](NC(=O)[C@@H]1CCCN1C(=O)CNC(=O)[C@H](Cc1ccccc1)NC(=O)[C@H](CC(N)=O)NC(=O)[C@H](CC(N)=O)NC(=O)[C@H](CO)NC(=O)[C@H](CO)NC(=O)[C@H](CCCCN)NC(=O)[C@H](CCC(N)=O)NC(=O)[C@H](CC(C)C)NC(=O)[C@H](Cc1ccccc1)NC(=O)[C@H](CC(N)=O)NC(=O)[C@H](C)NC(=O)[C@H](CC(C)C)NC(=O)[C@H](CCCNC(=N)N)NC(=O)[C@H](CO)NC(=O)[C@@H](NC(=O)[C@H](C)NC(=O)[C@@H]1CSSC[C@H](NC(=O)[C@@H](N)CCCCNC(=O)CCCCCCCCCCCCCCCCC(=O)O)C(=O)N[C@@H](CC(N)=O)C(=O)N[C@@H]([C@@H](C)O)C(=O)N[C@@H](CO)C(=O)N[C@@H]([C@@H](C)O)C(=O)N1)[C@@H](C)O)C(=O)N[C@@H](CC(C)C)C(=O)N1CCC[C@H]1C(=O)N1CCC[C@H]1C(=O)N[C@H](C(=O)N[C@@H](CCCCN)C(=O)N[C@H](C(=O)NCC(=O)N[C@@H](CO)C(=O)N[C@@H](CCC(=O)O)C(=O)N[C@H](C(=O)N[C@@H](Cc1ccc(O)cc1)C(N)=O)[C@@H](C)O)C(C)C)[C@@H](C)O

The binders below were run against T1, human calcitonin receptor (assay: cell-based or functional assay).

| pEC50 (cAMP accumulation), 0% HSA | pEC50 (cAMP accumulation), 0.1% HSA | pEC50 (cAMP accumulation), 4% HSA | Binder |
| --- | --- | --- | --- |
| 11.7 pEC50 | 10.4 pEC50 | 8.8 pEC50 | B1 |
| 11.5 pEC50 | 10.5 pEC50 | 9 pEC50 | B2 |
| 11.7 pEC50 | 10.5 pEC50 | 9 pEC50 | B3 |
| 11.7 pEC50 | 10.5 pEC50 | 9.3 pEC50 | B4 |
| 11.3 pEC50 | 10.2 pEC50 | 8.8 pEC50 | B5 |

What follows are binders tested against T2, human amylin 3 receptor (assay: cell-based or functional assay).

| pEC50 (cAMP accumulation), 0% HSA | pEC50 (cAMP accumulation), 0.1% HSA | pEC50 (cAMP accumulation), 4% HSA | Binder |
| --- | --- | --- | --- |
| 12.2 pEC50 | 10.7 pEC50 | 9.5 pEC50 | B1 |
| 12.5 pEC50 | 11.6 pEC50 | 10.3 pEC50 | B2 |
| 12.2 pEC50 | 11.1 pEC50 | 9.6 pEC50 | B3 |
| 12 pEC50 | 10.8 pEC50 | 9.5 pEC50 | B4 |
| 12.2 pEC50 | 11.2 pEC50 | 9.6 pEC50 | B5 |
